Drawing on US20240158499A1 (Janssen / Centocor, published 2024), this text covers Kd for one molecule.

For experiment [1], the target named is T1, extracellular domain (ECD) of human CD79B isoform 1, CD9W7 (human).
T1 construct: It also carries C-terminal tag residues ending in a 6xHis tag; also called CD79b long isoform; hCD79B-long
T1 chain: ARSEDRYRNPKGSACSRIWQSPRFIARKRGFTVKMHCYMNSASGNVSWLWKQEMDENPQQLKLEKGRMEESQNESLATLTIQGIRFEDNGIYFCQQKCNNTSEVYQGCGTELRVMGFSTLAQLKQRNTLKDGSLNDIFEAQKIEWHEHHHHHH
Put plainly: SPR; hCD79B-long.

Experiment [2] concerns the target T2, extracellular domain (ECD) of human CD79B isoform 2, CD9W8 (human).
T2 construct: It also carries C-terminal tag residues ending in a 6xHis tag; also called CD79b short isoform; hCD79B-short
T2 chain: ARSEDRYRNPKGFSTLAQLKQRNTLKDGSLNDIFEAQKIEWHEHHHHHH
Put plainly: SPR; hCD79B-short. For orientation: Surface plasmon resonance follows binding to a sensor surface in real time, without labels.

B1: CD9B1256 (antibody, V domains shown)
VH: EVQLVESGPGLVEPSETLSLTCTVSGGSISSYYWSWIRQPAGKGLEWIGRIYSSGSTNYNPSLKSRVTMSVDTSENQFSLNLNSVTAADTAKYYCARGEYSGDLGGYGLDVWGQGTMVTVSS
VL: EIVMTQSPLSLSVTPGEPASISCRSSQSLLDSDDGNTYLDWYLQKPGQSPQLLIQTLSYRASGVPDRFSGRGSGTDFTLKISRVEAEDVGIYYCMQRMEFPLTFGGGTKVDIKR
notes: also called VR000056263
As for B1, the equilibrium dissociation constant (Kd) (usually the equilibrium constant for the complex coming apart) in experiment [1] was found to be 0.78 nM; in experiment [2] it was 2.21 nM.
